One molecule from patent publication US20240002535A1 (Merck Sharp & Dohme, published 2024) can be followed below.

Test [1] has as its target T1, human arginase 1 (hArg1), trimeric (human, UniProt P05089 1-322).
T1 construct: Natural homotrimer; It carries two Mn ions in each active site; also called Human Arg1 trimer; trimeric hArg1
T1 sequence: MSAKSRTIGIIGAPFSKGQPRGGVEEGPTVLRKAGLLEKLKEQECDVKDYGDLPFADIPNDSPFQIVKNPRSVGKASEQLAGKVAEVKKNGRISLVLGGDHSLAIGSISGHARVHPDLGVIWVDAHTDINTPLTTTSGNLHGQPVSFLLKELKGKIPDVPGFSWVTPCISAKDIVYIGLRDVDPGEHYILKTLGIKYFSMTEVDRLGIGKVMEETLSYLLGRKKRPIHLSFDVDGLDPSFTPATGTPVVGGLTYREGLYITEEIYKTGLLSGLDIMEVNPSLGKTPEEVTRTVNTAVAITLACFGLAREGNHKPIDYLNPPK
Briefly: isothermal titration calorimetry: hArg1 trimer (100 µM, syringe) titrated into mAb4 mouse/human chimera (10 µM, cell) at 25 °C. Here is the method:
(§1) Isothermal titration calorimetry (ITC) was conducted using a MicroCal PEAQ-ITC Automated (Malvern Inc, Westborough, MA) to determine the stoichiometry and thermodynamics properties of the hArg1:mAb interaction. […] Arginase (100 μM) in the ITC syringe was titrated into the antibody (10 μM) in the ITC cell at 25° C. Reference power was set to 10 μcal/sec with initial delay of 60 seconds and stirring speed of 750 rpm. Injection volume was 0.4 μL for the first injection and 4 μL for subsequent injections. Injection duration was 0.8 seconds for the first injection and 6 seconds for subsequent injections with 150 sec spacing. Baseline was adjusted using buffer-buffer titration. Data analysis was done using MicroCal PEAQ-ITC Analysis Software.
(In general: Isothermal titration calorimetry measures the heat released or taken up as one component is titrated into another.)

The target in test [2] is T1, human arginase 1 (hArg1), trimeric. Briefly: ITC, hArg1 trimer (100 uM, syringe) titrated into the antibody (10 uM, cell) at 25 C. Here is the method: as §1

B1: mAb4 (mouse/human chimera) (antibody, V domains shown)
VH: EVQLQQSGPVLVKPGASVKMSCKASEYTFTDYYMNWVKQSHGRSLEWIGVISPYNGGTTYNQKFKGKATLTVDKSSSTAYMELNSLTSEDSAVYYCVYDLYYFDYWGQGTTLTVSS
VL: NIVLTQSPATLSVTPGDSVSLSCRASQRISNDLHWYQQKSHESPRLLIKYASQSISGIPSRFSGSGSGTDFTLSINSVETEDFGMYFCQQSNSWPRTFGGGTKLEIK
In the case of B1, in test [1], the “-TΔS” value was 3 kcal/mol, the ΔG was -10.7 kcal/mol and the ΔH is -13.7 kcal/mol. Also, in test [2], the “stoichiometry n (ITC)” value was found to be 0.637.
